B1: BAG family molecular chaperone regulator 1 (Homo sapiens), Q99933 (parent)
chain: MAQRGGARRPRGDRERLGSRLRALRPGREPRQSEPPAQRGPPPSGRPPARSTASGHDRPTRGAAAGARRPRMKKKTRRRSTRSEELTRSEELTLSEEATWSEEATQSEEATQGEEMNRSQEVTRDEESTRSEEVTREEMAAAGLTVTVTHSNEKHDLHVTSQQGSSEPVVQDLAQVVEEVIGVPQSFQKLIFKGKSLKEMETPLSALGIQDGCRVMLIGKKNSPQEEVELKKLKHLEKSVEKIADQLEELNKELTGIQQGFLPKDLQAEALCKLDRRVKATIEQFMKILEEIDTLILPENFKDSRLKRKGLVKKVQAFLAECDTVEQNICQETERLQSTNFALAE

Variants of: B1
Conditions: with hsp7c_human HSPA8, P11142
Chain of hsp7c_human HSPA8, P11142 (P11142 whole entry, looked up): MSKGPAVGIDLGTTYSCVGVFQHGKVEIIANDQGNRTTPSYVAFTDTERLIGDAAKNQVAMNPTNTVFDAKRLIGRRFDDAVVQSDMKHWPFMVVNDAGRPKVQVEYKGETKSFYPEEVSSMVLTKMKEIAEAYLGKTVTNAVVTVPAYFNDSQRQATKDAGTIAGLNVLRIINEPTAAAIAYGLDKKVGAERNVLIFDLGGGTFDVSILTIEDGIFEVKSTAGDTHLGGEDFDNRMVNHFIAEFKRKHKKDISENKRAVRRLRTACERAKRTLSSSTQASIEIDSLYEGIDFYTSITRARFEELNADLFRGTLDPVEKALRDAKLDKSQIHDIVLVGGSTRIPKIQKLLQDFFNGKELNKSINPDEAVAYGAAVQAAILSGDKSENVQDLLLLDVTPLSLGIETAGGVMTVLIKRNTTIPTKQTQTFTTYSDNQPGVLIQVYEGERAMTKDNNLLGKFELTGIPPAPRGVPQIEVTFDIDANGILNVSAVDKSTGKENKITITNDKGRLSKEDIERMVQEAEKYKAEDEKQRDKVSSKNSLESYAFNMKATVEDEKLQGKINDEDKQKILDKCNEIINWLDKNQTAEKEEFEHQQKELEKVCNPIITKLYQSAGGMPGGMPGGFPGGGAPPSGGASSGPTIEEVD

For MAQRGGARRPRGDRERLGSRLRALRPGREPRQSEPPAQRGPPPSGRPPARSTASGHDRPTRGAAAGARRPRMKKKTRRRSTRSEELTRSEELTLSEEATWSEEATQSEEATQGEEMNRSQEVTRDEESTRSEEVTREEMAAAGLTVTVTHSNEKHDLHVTSQQGSSEPVVQDLAQVVEEVIGVPQSFQKLIFKGKSLKEMETPLSALGIQDGCRVMLIGKKNSPQEEVELKKLKHLEKSVEKIADQLEELNKELTGIQQGFLPKDLQAEALCKLDRRVKATIEQFMKILEEIDTLILPENFKDSRLKAKGLVKKVQAFLAECDTVEQNICQETERLQSTNFALAE [R308A], which “effect of a mutation on the interaction” value is on record?
Its value is “decreasing interaction”.

Variants of: B1
Conditions: with hsp7c_human HSPA8, P11142
Remark: another data set of the same source

How did the “effect of a mutation on the interaction” value turn out when MAQRGGARRPRGDRERLGSRLRALRPGREPRQSEPPAQRGPPPSGRPPARSTASGHDRPTRGAAAGARRPRMKKKTRRRSTRSEELTRSEELTLSEEATWSEEATQSEEATQGEEMNRSQEVTRDEESTRSEEVTREEMAAAGLTVTVTHSNEKHDLHVTSQQGSSEPVVQDLAQVVEEVIGVPQSFQKLIFKGKSLKEMETPLSALGIQDGCRVMLIGKKNSPQEEVELKKLKHLEKSVEKIADQLEELNKELTGIQQGFLPKDLQAEALCKLDRRVKATIEQFMKILEEIDTLILPENFKDSRLKRAGLVKKVQAFLAECDTVEQNICQETERLQSTNFALAE [K309A] was run?
Its value is “decreasing interaction”.

Source: IntAct's records for PubMed 19800331
